From the supplement of paper PMC11246515
± gives the standard deviation of the averaged measurements.

Test: total protein half-life in vivo (active degradation + dilution); higher = more stable protein
[1] = E. coli NCM3722 delta-clpP delta-lon delta-hslV, growth: N-lim chemostat, doubling time 6 h
[2] = E. coli NCM3722 delta-clpP, growth: N-lim chemostat, doubling time 6 h
[3] = E. coli NCM3722 delta-hslV, growth: N-lim chemostat, doubling time 6 h
[4] = E. coli NCM3722 delta-lon, growth: N-lim chemostat, doubling time 6 h
[5] = E. coli NCM3722 delta-smpB, growth: N-lim chemostat, doubling time 6 h
[6] = wild type E. coli NCM3722, growth: C-lim chemostat, doubling time 3 h
[7] = wild type E. coli NCM3722, growth: C-lim chemostat, doubling time 6 h
[8] = wild type E. coli NCM3722, growth: C-lim chemostat, doubling time 12 h
[9] = wild type E. coli NCM3722, growth: N-lim chemostat, doubling time 6 h
[10] = wild type E. coli NCM3722, growth: N-lim chemostat, doubling time 12 h
[11] = wild type E. coli NCM3722, growth: P-lim chemostat, doubling time 6 h
[12] = wild type E. coli NCM3722, growth: P-lim chemostat, doubling time 12 h

Row | Sequence | total protein half-life in vivo [1] [h] | total protein half-life in vivo [2] [h] | total protein half-life in vivo [3] [h] | total protein half-life in vivo [4] [h] | total protein half-life in vivo [5] [h] | total protein half-life in vivo [6] [h] | total protein half-life in vivo [7] [h] | total protein half-life in vivo [8] [h] | total protein half-life in vivo [9] [h] | total protein half-life in vivo [10] [h] | total protein half-life in vivo [11] [h] | total protein half-life in vivo [12] [h]
1 | MKHSVSVTCCALLVSSISLSYAAEVPSGTVLAEKQELVRHIKDEPASLDPAKAVGLPEIQVIRDLFEGLVNQNEKGEIVPGVATQWKSNDNRIWTFTLRDNAKWADGTPVTAQDFVYSWQRLVDPKTLSPFAWFAALAGINNAQAIIDGKATPDQLGVTAVDAHTLKIQLDKPLPWFVNLTANFAFFPVQKANVESGKEWTKPGNLIGNGAYVLKERVVNEKLVVVPNTHYWDNAKTVLQKVTFLPINQESAATKRYLAGDIDITESFPKNMYQKLLKDIPGQVYTPPQLGTYYYAFNTQKGPTADQRVRLALSMTIDRRLMTEKVLGTGEKPAWHFTPDVTAGFTPEPSPFEQMSQEELNAQAKTLLSAAGYGPQKPLKLTLLYNTSENHQKIAIAVASMWKKNLGVDVKLQNQEWKTYIDSRNTGNFDVIRASWVGDYNEPSTFLTLLTSTHSGNISRFNNPAYDKVLAQASTENTVKARNADYNAAEKILMEQAPIAPIYQYTNGRLIKPWLKGYPINNPEDVAYSRTMYIVKH | 5.12 ± 0.18 | 5.6 ± 0.17 | 6.96 ± 0.47 | 6.18 ± 0.087 | 5.63 ± 0.21 | 3.26 ± 0.29 | 6.21 ± 0.43 | 10.1 ± 0.25 | 6.41 ± 0.44 | 12.1 ± 0.92 | 5.86 ± 0.16 | 12.4 ± 1.1
2 | MKIATIKTGLASLAMLPGLVMAAPAVADKADNAFMMICTALVLFMTIPGIALFYGGLIRGKNVLSMLTQVTVTFALVCILWVVYGYSLAFGEGNNFFGNINWLMLKNIELTAVMGSIYQYIHVAFQGSFACITVGLIVGALAERIRFSAVLIFVVVWLTLSYIPIAHMVWGGGLLASHGALDFAGGTVVHINAAIAGLVGAYLIGKRVGFGKEAFKPHNLPMVFTGTAILYIGWFGFNAGSAGTANEIAALAFVNTVVATAAAILGWIFGEWALRGKPSLLGACSGAIAGLVGVTPACGYIGVGGALIIGVVAGLAGLWGVTMLKRLLRVDDPCDVFGVHGVCGIVGCIMTGIFAASSLGGVGFAEGVTMGHQLLVQLESIAITIVWSGVVAFIGYKLADLTVGLRVPEEQEREGLDVNSHGENAYNA | 5.75 ± 1.4 | 4.24 ± 0.22 | 5.51 ± 1.2 | 5.81 ± 2 | 4.6 ± 0.47 |  |  |  | 4.78 ± 0.62 | 8.59 ± 0.8 |  | 
3 | MKIDLNADLGEGCASDAELLTLVSSANIACGFHAGDAQIMQACVREAIKNGVAIGAHPSFPDRENFGRSAMQLPPETVYAQTLYQIGALATIARAQGGVMRHVKPHGMLYNQAAKEAQLADAIARAVYACDPALILVGLAGSELIRAGKQYGLTTREEVFADRGYQADGSLVPRSQSGALIENEEQALAQTLEMVQHGRVKSITGEWATVAAQTVCLHGDGEHALAFARRLRSAFAEKGIVVAA | 5 ± 0.5 |  | 3.66 | 5.55 ± 2 | 3.12 ± 0.19 | 2.4 ± 0.35 |  | 7.69 ± 0.61 | 3.911 ± 0.035 | 5.79 ± 0.9 | 4.55 ± 0.18 | 7.81 ± 1.7
4 | MKIGTQNQAFFPENILEKFRYIKEMGFDGFEIDGKLLVNNIEEVKAAIKETGLPVTTACGGYDGWIGDFIEERRLNGLKQIERILEALAEVGGKGIVVPAAWGMFTFRLPPMTSPRSLDGDRKMVSDSLRVLEQVAARTGTVVYLEPLNRYQDHMINTLADARRYIVENDLKHVQIIGDFYHMNIEEDNLAQALHDNRDLLGHVHIADNHRYQPGSGTLDFHALFEQLRADNYQGYVVYEGRIRAEDPAQAYRDSLAWLRTC | 5.87 ± 0.64 |  |  |  |  |  |  |  |  |  |  | 
5 | MKIIILGAGQVGGTLAENLVGENNDITVVDTNGERLRTLQDKFDLRVVQGHGSHPRVLREAGADDADMLVAVTSSDETNMVACQVAYSLFNTPNRIARIRSPDYVRDADKLFHSDAVPIDHLIAPEQLVIDNIYRLIEYPGALQVVNFAEGKVSLAVVKAYYGGPLIGNALSTMREHMPHIDTRVAAIFRHDRPIRPQGSTIVEAGDEVFFIAASQHIRAVMSELQRLEKPYKRIMLVGGGNIGAGLARRLEKDYSVKLIERNQQRAAELAEKLQNTIVFFGDASDQELLAEEHIDQVDLFIAVTNDDEANIMSAMLAKRMGAKKVMVLIQRRAYVDLVQGSVIDIAISPQQATISALLSHVRKADIVGVSSLRRGVAEAIEAVAHGDESTSRVVGRVIDEIKLPPGTIIGAVVRGNDVMIANDNLRIEQGDHVIMFLTDKKFITDVERLFQPSPFFL [P0AGI8] | 6.84 ± 1.2 | 4.97 ± 0.52 | 5.96 ± 0.17 | 5.31 ± 0.37 | 5.41 ± 0.16 | 3.056 ± 0.029 | 6.56 ± 0.57 | 11.5 ± 0.3 | 5.839 ± 0.044 | 12 ± 0.56 | 6.38 ± 0.11 | 13.2 ± 0.66
6 | MKIILLFLAALASFTVHAQPPSQTVEQTVRHIYQNYKSDATAPYFGETGERAITSARIQQALTLNDNLTLPGNIGWLDYDPVCDCQDFGDLVLESVAITQTDADHADAVVRFRIFKDDKEKTTQTLKMVAENGRWVIDDIVSNHGSVLQAVNSENEKTLAALASLQKEQPEAFVAELFEHIADYSWPWTWVVSDSYRQAVNAFYKTTFKTANNPDEDMQIERQFIYDNPICFGEESLFSRVDEIRVLEKTADSARIHVRFTLTNGNNEEQELVLQRREGKWEIADFIRPNSGSLLKQIEAKTAARLKQ | 5.65 | 5.01 ± 0.93 |  | 6.249 ± 0.025 | 5.65 ± 0.12 | 3.56 | > 8 | 11.1 ± 0.5 | 6.33 ± 0.27 | 12.3 ± 1.8 | 6.45 | 11.28 ± 0.1
7 | MKIISFVLPCLLVLAGCSTPSQPEAPKPPQIGMANPASVYCQQKGGTLIPVQTAQGVSNNCKLPGGETIDEWALWRRDHPAGEK |  | > 8 |  | 6.51 | 5.85 | 2.68 |  | 15.8 ± 0.2 |  | 14.4 ± 0.2 | 6.22 | 
8 | MKIKAVGAYSAKQPLEPMDITRREPGPNDVKIEIAYCGVCHSDLHQVRSEWAGTVYPCVPGHEIVGRVVAVGDQVEKYAPGDLVGVGCIVDSCKHCEECEDGLENYCDHMTGTYNSPTPDEPGHTLGGYSQQIVVHERYVLRIRHPQEQLAAVAPLLCAGITTYSPLRHWQAGPGKKVGVVGIGGLGHMGIKLAHAMGAHVVAFTTSEAKREAAKALGADEVVNSRNADEMAAHLKSFDFILNTVAAPHNLDDFTTLLKRDGTMTLVGAPATPHKSPEVFNLIMKRRAIAGSMIGGIPETQEMLDFCAEHGIVADIEMIRADQINEAYERMLRGDVKYRFVIDNRTLTD | 4.84 ± 0.2 | 4.8 ± 0.18 | 4.92 ± 0.16 | 5.05 ± 0.38 | 4.66 ± 0.61 | 3.225 ± 0.021 | 5.86 ± 0.58 | 11 ± 0.91 | 5.04 ± 0.17 | 8.89 ± 0.21 | 6.23 ± 0.59 | 12 ± 0.78
